B1: Azoarcus group I ribozyme (parent)
chain: GUGCCUUGCGCCGGGAAACCACGCAAGGGAUGGUGUCAAAUUCGGCGAAACCUAAGCGCCCGCCCGGGCGUAUGGCAACGCCGAGCCAAGCUUCGGCGCCUGCGCCGAUGAAGGUGUAGAGACUAGACGGCACCCACCUAAGGCAAACGCUAUGGUGAAGGCAUAGUCCAGGGAGUGGCGAAAGUCACACAAACCGG

Variants of B1 are the subject of the series. Put plainly: reverse-splicing fitness (ratio to wild type); higher = more active; in vitro selection; Mg2+ level not given. The essentials:
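An in vitro group I ribozyme library with randomized positions was T7-transcribed and gel-purified. In triplicate, 10 pmol RNA in EPPS pH 7.5 was reacted with 50 pmoles of a 30-nt RNA substrate for 1 h at 37 °C across several added MgCl2 levels (1–48 mM), then stopped with EDTA. Products were reverse transcribed from a substrate-complementary primer, PCR-amplified and sequenced (HiSeq 4000). Fitness is a variant's read proportion after selection over that before, normalised to wild type.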
Take C82U A111U A120C A145U C150G C169G: the reverse-splicing fitness is 0.00651. The value for C82U A111G C150U C169G U176C was 0.0162; that for C82U A111G C150U C169G U176G was 0.00558; that for C82U A111G C150U C169G U176A was 0.0191. The value for C82U A111G A145G C150U C169U U176C was 0.0132; that for C82U A111G A145G C150U C169U U176A was 0.0132; that for C82U A111G A145G C150U C169U U176G was 0.005.

For the variant C82U A111U A120C A145C C150G C169A U176C, the reverse-splicing fitness worked out at 0.00591. For C82U A111U A120C A145C C150G C169A U176G the value was 0.00527; for C82U A111U A120C A145C C150G C169A U176A, 0.00641; for C82U A111U A120C A145G C150G C169G, 0.00731. In the case of C82U A111U A120C A145G C150G C169U, the reverse-splicing fitness is 0.00911. The value for C82U A111U A120C A145G C150G C169A was 0.00919; that for C82U A111G C150G C169A U176C was 0.0121. With C82U A111G C150G C169A U176G, the reverse-splicing fitness amounted to 0.00562.

For the variant C82U A111G C150G C169A U176A, the reverse-splicing fitness came out at 0.00962. With C82U A111G C169U, the reverse-splicing fitness turned out to be 0.0128. Turning to C82U A111G C169G, the reverse-splicing fitness amounted to 0.0092.

In the case of C82U A111G C169A, the reverse-splicing fitness was 0.0072.

C82U A111G A145U C150A C169U U176G: the reverse-splicing fitness was 0.00567. For C82U A111G A145U C150A C169U U176A the value was 0.013; for C82U A111G A145U C150A C169U U176C, 0.012; for C82U A111U A120C A145G C150G, 0.00928. C82U A111U A120C A145G C150U: the reverse-splicing fitness amounted to 0.0229. The value for C82U A111U A120C A145G C150A was 0.0116; that for C82U A111G A145U C150G C169U U176A was 0.00755. The value for C82U A111G A145U C150G C169U U176G was 0.00472. For the variant C82U A111G A145U C150G C169U U176C, the reverse-splicing fitness was found to be 0.0112. For the variant C82U A111G A145U C150U U176G, the reverse-splicing fitness was 0.0347.

As to C82U A111G A145U C150U U176A, the reverse-splicing fitness turned out to be 0.123. The value for C82U A111G A145U C150U U176C was 0.172. For C82U A111U A120C A145G C150U C169G U176A the value was 0.0128; for C82U A111U A120C A145G C150U C169G U176C, 0.016.

With C82U A111U A120C A145G C150U C169G U176G, the reverse-splicing fitness came out at 0.00514. The value for C82U A111G A145G C169U was 0.0113; that for C82U A111G A145G C169A was 0.00814. The value for C82U A111G A145G C169G was 0.00933; that for C82U A111G C150A U176G was 0.0117.

On to C82U A111G C150A U176C, for which the reverse-splicing fitness turned out to be 0.0361. For C82U A111G C150A U176A the value was 0.0272; for C82U A111U A120C A145C C169G, 0.00709; for C82U A111U A120C A145C C169A, 0.0065. C82U A111U A120C A145C C169U: the reverse-splicing fitness was 0.011. As for C82U A111G C150U, the reverse-splicing fitness worked out at 0.224. As to C82U A111G C150A, the reverse-splicing fitness was found to be 0.0385. With C82U A111G C150G, the reverse-splicing fitness was found to be 0.0267.

For the variant C82U A111U A120C A145C C169A U176G, the reverse-splicing fitness stood at 0.00392.

As to C82U A111U A120C A145C C169A U176C, the reverse-splicing fitness stood at 0.00567. For C82U A111U A120C A145C C169A U176A the value was 0.00868; for C82U A111U A120C A145G U176C, 0.0219; for C82U A111U A120C A145G U176A, 0.0152.

In the case of C82U A111U A120C A145G U176G, the reverse-splicing fitness is 0.00517. Consider C82U A111G C150U U176A, for which the reverse-splicing fitness is 0.102. Take C82U A111G C150U U176G: the reverse-splicing fitness amounted to 0.0286.

With C82U A111G C150U U176C, the reverse-splicing fitness was found to be 0.146. For C82U A111U A120C A145C C150U C169G U176A the value was 0.0175. For C82U A111U A120C A145C C150U C169G U176G the value was 0.00538.

For C82U A111U A120C A145C C150U C169G U176C, the reverse-splicing fitness was 0.00936.

As for C82U A111G A145U C150A C169U, the reverse-splicing fitness is 0.0083. The value for C82U A111G A145U C150A C169G was 0.00745.

Regarding C82U A111G A145U C150A C169A, the reverse-splicing fitness was 0.0078. As to C82U A111G A145G C150U C169G, the reverse-splicing fitness amounted to 0.00979. For C82U A111G A145G C150U C169U the value was 0.0111; for C82U A111U A120C A145G C150A U176C, 0.0207. For C82U A111U A120C A145G C150A U176A the value was 0.0105; for C82U A111U A120C A145G C150A U176G, 0.00675.

As for C82U A111G A145U U176C, the reverse-splicing fitness is 0.258. With C82U A111G A145U U176G, the reverse-splicing fitness stood at 0.0781. For C82U A111G A145U U176A the value was 0.204; for C82U A111G A145U C169A U176A, 0.00885. As to C82U A111G A145U C169A U176G, the reverse-splicing fitness amounted to 0.00528. Turning to C82U A111G A145U C169A U176C, the reverse-splicing fitness came out at 0.00683. The value for C82U A111G C150U C169A U176C was 0.0135; that for C82U A111G C150U C169A U176G was 0.00543.

On to C82U A111G C150U C169A U176A, for which the reverse-splicing fitness is 0.0145. The value for C82U A111G A145G C169A U176C was 0.022; that for C82U A111G A145G C169A U176A was 0.0185. For C82U A111G A145G C169A U176G the value was 0.00491; for C82U A111U A120C A145U C150A, 0.00878.

Turning to C82U A111U A120C A145U C150U, the reverse-splicing fitness stood at 0.0196. The value for C82U A111U A120C A145U C150G was 0.0076. For C82U A111G C150U C169G the value was 0.0092; for C82U A111G C150U C169A, 0.00959; for C82U A111G C150U C169U, 0.0108.

These data come from the RNAGym collection of RNA variant scans (doi:10.1093/molbev/msab373).
